Measured values as given in the domain aggregation screens of Martell et al. (2025).

Experiment: soluble fraction after stress (log2 fold change); higher = more stays soluble; pooled small domains, quantitative proteomics
Conditions: stress: 75 degC
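Further: 20 min heating vs room temperature control held 20 min.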

| Sequence | soluble fraction (log2) |
| --- | --- |
| HMTANDKRNALYRKIEVGRRQLPAMDEVAFRQLLAAEFGVESRKDMSVGQLSRLVNILAEKGAVF | -0.741 |
| HMTANTLDLTYSQFLENVKNGSVNDVTIRGNNVSGNFSDGRKFKTYAVNDPTLVEKLTKMGVNISAAPL | 0.405 |
| HMTAPELSVGDYLEYRGKEYKVESLDMDGFITLTDTALEDAPRLISRVTFLTDEFIRSGEYMVIT | -0.811 |
| HMTAQGDSSDAVQRAITEILRHEDPSHPFSDQQLVIKLRTMDISVSRRTVTKYRKLLHIPSSTHRK | -3.12 |
| HMTARYQQVEDYIVRRIQDGSWPPGHRLPSEHELVQQFGMSRMTVNRALRDLMQKGRIVRVAGVGSFVAQD | -1.98 |
| HMTATSKKAAWDEVNKIFPTDYERSAAESERAGYAIFRSTAEGVNAWISDLGDRLEINLPDGKTVNIWIEE | -0.0996 |
| HMTATVPDSEAGIRLDVYAAALLGVSRAGAQKYIESGAVRVNGLPAPKNRRLESGDVIEAVLPDPE | 0.194 |
| HMTAVAAEQQAQDAYRQTAANNLNEIQAKYKLPDSESDDFFTFAYERGFTQEDFIDIGLVDKIMGDYV | 0.19 |
| HMTAVNEHELMNQFKLSLGYANGDDPQTKLSTDEKNDFMRFKEWATAMTKDSKMGKDPDYLKKLAVQWTLK | 0.278 |
| HMTAYEGLPVTLIIDGRVFQQNLQKMNLSVEWLRLELKKFGVTNLKEVLFASLDTEGKLFYQLKT | -0.792 |
| HMTDEYYSYIGKTGTTITVLRPAGIAEVEGERLNVVSEGEFIRKGAAILVKEVEGARILVEEVN | -0.58 |
| HMTDFESYTVRVTATNLNIRKGAGTNFHSAGYIKPGVYTIVEEADGKGATRWGKLKSGMGWISLDYAKK | -1.04 |
| HMTDGYAMRLERLNSLEEYVLNKGTVSLEDLAERFGVSINTIRRDLNELISRGQIKKVYGGVSSLHD | -0.252 |
| HMTDIDATSIERAVAKRRHFFLSNIQDLTMKMARRLIEKDLGLAPKHLDAAPFKTRITELVDAVIALGD | -0.393 |
| HMTDIKYLIADGNDIKHWDTASSSYVKVSELPLTSDKFKIYGDDIYHKERTGIIAASPILKIWSPSAE | 0.384 |
| HMTDKLIAYSVDGILNVITSEAQSVKVYAIDGRLVRILQLGEGRNEVSGLAKGIYIVDNRKVAV | -2.71 |
| HMTDLNQIGERIKGLRDALGYSPEKMASILEQKVDDYLAYEEGTKDISLSVLQRIEKEFDIDLSTLLFGT | -0.333 |
| HMTDRKRDAIVQAAIGEFREHGFNGTSMDRVAAAADVSKRTVYNHFPSKEELFEAILLLMWE | -1.93 |
| HMTDSISLTLNGDPRPFRAGATVADLVRDIGLDPAKVAVERNLEIVPRSTLENVHLADGDVLEIVHFV | 0.0689 |
| HMTDTIALRSVIAESGLKYKALAEIMGLSPYTLQMKIDNESEFKASEIDALANALGMDMQQRDSIFF | -0.536 |
| HMTDVIADMLTRIRNAASSKHQTVDIPSSNLKKEIAKILLEEGYIRDFIEIDDKKQGIIRITL | -0.692 |
| HMTDYREILRLLSLGLSRTQIADSLNVSRTTVIHTLQRAVAQELDWQTAEGMSDRELVAKLFPV | -3.95 |
| HMTEAVYMPALQNKTLEEAQRIVEQYDLELEYTYEANAQVEEGRILSQTPQMGVLVERGEKVQAVVSLG | 1.01 |
| HMTEDELLAQFEEILDGYVGKPGGLIPALQTAQKLFGYLPKRVLQLISMKLDIPYSEVTGVVSFYSFFTTV | 0.28 |
| HMTEEEEFEKGFEILVNLSHFNRFSVYKEDEYVIVRIADYDFNEYFKVKKSDVGRIAEFLNENIT | -2.61 |
| HMTEELLNQRKETMLALLNDPTYVPMKLKELAMLLNLSRDQRDELREVMESLEQDGKVILTKRGKYKIP | -0.261 |

| Sequence | soluble fraction (log2) |
| --- | --- |
| HMTEELQDMESRIIEAAKRVFVRKGYEATKMSDIALEVGLGRTALHYYFRTKEMLFDAIFGRLMGV | -0.702 |
| HMTEEPISDGIKKLVEEWENIEGNLIMIFHGIQKHYGYVPRNVAKYVSEAIDVPLTRIYEILTFYNYFTM | 0.261 |
| HMTEEYAVLWRVARQTLKPEAFDVLWMKYREQLSIAEIAGIMNRSETSVKVMLHRARKNLGTALESS | -1.75 |
| HMTEKIEWYKEVLELEPNSKVFFPLARMLAEEQRFDEAVAVLEHGLERHGEFLEARLFFIELLHET | -3.16 |
| HMTEKQYIYSIGDRVNIGTDEFEIVNINEKEVSIADVTFPMLVKQISYEEFDRKVKENPFNDHLII | -0.112 |
| HMTEKSTRSVPQEHEGKRLDVAAALLFPVYSRSELARRIDAGYLLLNGKGSTPKTKVHELDLIELLEV | -0.601 |
| HMTELKKTAVDTWVKDLGTEQALAKLDTLAVVKLRRLAREYKAFGIAGRAISKADKGMLLAEFRAYYEN | -2.08 |
| HMTETSKLTDAKQLLESILSSGEVSYKDIISAAEEYEIGKRTLMSAKALLSIESIKKTDGWYWTLPH | -0.368 |
| HMTEVPSLSSLKIGDLIFYRNNKGAIAHSAIITSFYNGRPFISQHTFNALNITYVKDWASKMHFIKIW | 0.0528 |
| HMTEWDDATVKDAVEYFMSVNGRVPTVTDFKKENGLPSHPVIKQRYKINLHEWLNKNFPTYY | -1.3 |
| HMTFEPVYDENSRILILGTFPSVKSREQQFYYGHPQNRFWKLLAALTGWKVPKTISEKKELLLQNGIA | -0.208 |
| HMTFFDDLLYQAKAAVDNDPSIKPSLHNRAIIEILYQQGVFNMKNAVEHVAELLEISKNTVYLHLRSVKG | -1.06 |
| HMTFGEMLQYTNRLKEILESNAPQSIKDRRLANLMTDLEQAYGIPILRDQEFEKENPFLMQLYRTIS | -2.4 |
| HMTFKDIMENYTISRIENTINSAVVFLDEINAYITIDKTQLPSNLRYDTDSKIMASQIPDDAKIKYFMIYW | -2.12 |
| HMTFPIDINRADTEQLTALPGIGEVLAKRIIAYREENGSFLSTDELKNVEGIGEKRLEAIVDLITIG | 0.145 |
| HMTFSDKIRELRKQKGVSQAVVAEYLGITKQAYSLYETGKREPDFDSLLKLAEYFGTDTDSLLY | -1.52 |
| HMTGEEVLIMLGEKMKLIRNYNGYSQRQIAEILKIERSTYASYETGRNRPDIFAVQRFAKIFNVSVDYIL | -0.244 |
| HMTGELEVTAAGLSPEKLLNLAAKNHITLSNVKRLSYTQLSFRIGPADYNRLKKLLPEGRYKLNVGSS | -2.28 |
| HMTGESIPFSKFLSEVDSGRVINVEIQGNNISGLLSDGNKFKTYSPNYPNLVEILSEKEVSIVATPLE | 0.0122 |
| HMTGGLTQEQISQLRMLTPQQIEQLRQLQPQQVEMLRQLRPEQVMLLTQLEPQQIMAFMRLEPSVIMQL | -0.261 |
| HMTGGMVTYIIEKGEGFFSLERKFGLSENELIKLNPSLKSGLKSEMQINIPKENYDRYVASS | -0.45 |
| HMTGIESVKPSSDFTVEGNRIVAGDAEVEVYDLAGRKVNNNNLTTGVYIAKIAGSAESVKVFV | 0.144 |
| HMTGIQDVPALETRRVGNTFFFDRATDVQVYDLQGRLLQQARKVTSVSIGHLQQGVYVLTDGRASVKVQ | -1.51 |
| HMTGIQLNDRERAILQHLSDGLTTKAIAERIFLREDTVKWYRKNLLARFEQPIVAALVKWAVLEGLV | 0.0483 |
| HMTGIVVVDVVGQVGRPGLVSLPAGSRVADAITAAGGATPEADVSLLNQARLVIDGEQIRVPRPGEVIAA | -0.0555 |
| HMTGKVSHGERKSVLVSLAGSMRARGMSIDAVRAGLYADNEKRFDPPLDERDIEDVLNSAKKWGDP | -0.352 |

| Sequence | soluble fraction (log2) |
| --- | --- |
| HMTGMDALIGRRVFVSEEILPGDAGGRVAVDGDSWRAISVGTAKPIPAGTEVRIHGYKSLILEVEPI | -0.788 |
| HMTGQHFDLEDTDGNLVYEIDSTVPLKTFYIYDAMHTEIFRMTKELLHALPTYRFYLYGEPYGVLKKQ | -0.192 |
| HMTGRVKWYDATKGFGFVTSDEGGDVFLPKGALPAGVADLKTGQRIEFGVVDSRKGAQALGVK | 0.352 |
| HMTGSAETRGITLTDEQVTVWAKDGSWANYVYRATDGNWYDGSGRLYYENGGGEWTQAATGEQGS | 0.126 |
| HMTGSALDATIEKLLDLGSKAGSVTEDEIQIVLKNVDVTDAQLSSIYQFLRDRGVEIVSATEDDD | 0.371 |
| HMTGVPYLVRVKITDLHIRSGPGTNYASKGFIAPGAYTIVEESTGQGAALWGKLKSGKGWIALGYTEK | -2.13 |
| HMTHAISKTYAVTGEQLKNGFTLTHTFANGSTRRVDVYPGSRSGKVIAVRNTTDDTTEWIRIVEG | -0.2 |
| HMTHSEYVGRHGIAATSLRPAGAATIDGSRVDVVTSGEYIEKGTPIEVMTVNGSTVRVKAVPQIP | 0.203 |
| HMTIDANAIEKMVLDLIGEHPNEWGRYRDGDKKVQGFFVGQIMKATSGQADGKIVNQILSQHAEA | -0.0337 |
| HMTIELAEGQHFLQISKSGAPMGNVVRDLIIQTLKITNGNQIKAAKILGISRAKLRYRIEQLGINITGKNI | -2.81 |
| HMTIERVKIKETPTGWLRVRETPDNNGSEIGRANVGEIYELLGSKGEWYHIVYKGKQGFISTKYAEKVL | -0.999 |
| HMTIGEALLNLRKQLGLNQTEMAANVVSTSFYSKVERNIHDIGTKDLLQILNKHQINATYFFENLN | -1.82 |
| HMTIHVMEIKSLLPIKILDESQHLVQSFSSKNPTSYNYRLIFSDKSKLENIKKTINENKDVESIEIRYA | -0.885 |
| HMTILTSSQRKALISKMIRQGGVESQSHLVKLLAREGVKVTQATASRDLEDLGATRVRDANGEFQYVIP | -1.16 |
| HMTINQIDPASGRKVGYWIITGEMKPKEGFSPDNKIEEGIYVNSRKSGKWIKYWPNGNVRSEIIYKNGR | -0.677 |
| HMTITPEVIVNHFKNLDLFFTKNGNYYEFKKKGTENILFKYGIYKQKPNIFVKIQRYPISSLSDLERIPI | -1.53 |
| HMTIYLSENIKRLRLEKELTQETLSEFLGVTSQSVSNWERGESYPDITMLPEIADFFKVSVDELLGVNRAE | -2.26 |
| HMTIYPFNPNYLKDYQAYRVGLSLKEIDALLDFRSSGQWINSAEDFQRITGVSDSVLEQLIPYFKFS | -2.98 |
| HMTKASYKITTPSGVNVREGAGKRYAVRKAYPKGKTVTVTQTKEVNGNLWGKTSDGWFAIKYQGAVYASA | -1.39 |
| HMTKDEFLTTLRTLIQDMPPEDRRDVMNYYTEYFEDAGPEREQEVLRQLGSPEQVAREVLGG | -0.0428 |
| HMTKDVIEIVDGNKFVFHKTIATDSVSSVINKYHISEADFRTWNELTGDMKVGEEYIVQLSLH | -0.87 |
| HMTKKFQIQTLDKLNVRKVADWNASAVTTVKKGQILDVVAEVSPKNGSTKMYKLESGLYITASEKYVKKQG | -1.65 |
| HMTKLPLLVELSRIIPTDTWVKKIKFSLGSVEFVGISKSASRLLPIVENSSYFHDTKFIGTIVT | -0.547 |
| HMTKNIIVTTSVKTSDELVEVAKNHALNLELDFNYRNKKTIKELLSSFDGLVVIYKNKISYFEDNSELF | 0.335 |
| HMTKQDYLTALQQELNKNAVADAEDIVSEYEQHFQFKLADGFTEEEIAAKLGAPAQIALQFAG | 0.826 |
